The results in this text go back to patent publication US20110020353A1 (published 2011).

For this experiment, the target named is T1, 161P2F10B variant 1 (human), on the cell surface (human, UniProt O14638 1-875).
T1 construct: Reported to be dimeric on the cell surface; also called 161P2F10B v.1; CD203c
The experiment in a line: FACS on KU-812 cells, serial dilutions, one site binding fit.

B1: Ha16-1.42 (antibody, V domains shown)
VH: EVQLVQSGAEVKKPGESLKISCKGSGYRFTSYWIGWVRQMPGKGLEWMGIIYPGDSDTRYSPSFQGQVTISADKSISTAYLQWSSLKASDTAMYYCARKDYYYYSMDVWGQGTTVTVSS
VL: QSALTQPASVSGSPGQSITISCTGTSSDVGRFNYVSWYQQRPGKAPKLMIYAVNIRPSGVSNRFSGSKSGNTASLTISGLQAEDEAGYYCSSYTSSSTLLVFGGGTKLTVLG
Broadly, the Kd is the equilibrium constant for the complex coming apart. The low end stands for a tighter complex, the high end for a looser complex. The molecule B1 displayed a Kd of 20 pM.
